Measured values reported in EP4692126A1 (Sound Biopharmaceuticals Co. Ltd., dated 2026).
Numbering of substitutions follows the chain as printed.

T1: 5T4 EDC-Fc (UniProt Q13641 32-355)
T1 construct: domain: EDC; Printed with molecular weight 65-120 kD; not shown: Fc part
T1 sequence (looked up): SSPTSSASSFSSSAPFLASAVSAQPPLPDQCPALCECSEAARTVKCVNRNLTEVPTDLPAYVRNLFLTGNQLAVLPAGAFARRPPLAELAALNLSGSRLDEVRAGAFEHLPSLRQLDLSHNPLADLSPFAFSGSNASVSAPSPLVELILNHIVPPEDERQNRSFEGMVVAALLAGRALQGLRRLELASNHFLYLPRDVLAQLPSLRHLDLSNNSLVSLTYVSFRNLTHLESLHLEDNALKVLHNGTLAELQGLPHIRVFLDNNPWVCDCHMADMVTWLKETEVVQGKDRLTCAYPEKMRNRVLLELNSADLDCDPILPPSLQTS

T2: TPBG-His (UniProt Q13641 32-355, limits assumed)
T2 construct: probably the human protein, the same as m24; also called TPBG-His antigen; TPBG-His protein; not shown: His tag
T2 sequence (looked up): T1 sequence (looked up)

T3: mouse 5T4 antigen (TPBG-His, mouse) (mouse, UniProt Q9Z0L0 32-361, limits assumed)
T3 construct: One of the '3 different species of TPBG-His' coated in the cross reactivity ELISA; also called mouse TPBG-His; not shown: His tag
T3 sequence (looked up): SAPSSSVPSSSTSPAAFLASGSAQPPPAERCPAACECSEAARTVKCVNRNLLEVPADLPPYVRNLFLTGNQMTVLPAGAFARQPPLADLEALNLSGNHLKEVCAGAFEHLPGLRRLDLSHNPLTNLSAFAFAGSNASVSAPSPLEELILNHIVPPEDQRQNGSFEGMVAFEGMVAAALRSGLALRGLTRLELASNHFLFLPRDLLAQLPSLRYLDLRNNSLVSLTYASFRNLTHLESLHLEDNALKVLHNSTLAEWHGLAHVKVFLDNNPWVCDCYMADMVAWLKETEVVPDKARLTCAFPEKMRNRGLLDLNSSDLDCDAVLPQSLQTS

B1: antibody B5 (antibody, V domains shown)
VH: EVQLVESGGGLVKPGGSLKLSCAASGFTFRNYAMSWVRQSPDKRLEWVAEISTGGSYTYYPDTVTGRFTISRDNAKNTLYLEMSSLRSEDTAMYYCAFYYYGSSYSMDYWGQGTSVTVSS
VL: DIQMTQTTSSLSASLGDRVTISCRASQDISNYLNWYQQKPDGTVKLLIYHTSILHSGVPSRFSGSGSGTDYSLTISNLEQEDIATYFCQQGDTVPLTFGAGTKLELK
notes: Monoclonal antibody from hybridoma of immunized BALB/c mice
B2: hB5-2-12 (antibody, human IgG1, kappa)
heavy: not shown
light: DIQMTQSPSSLSASVGDRVTISCRASQDISNYLNWYQQKPGKAPKLLIYHTSILHSGVPSRFSGSGSGTDYSLTISSLQPEDFATYFCQQGDTVPLTFGGGTKVEIKRTVAAPSVFIFPPSDEQLKSGTASVVCLLNNFYPREAKVQWKVDNALQSGNSQESVTEQDSKDSTYSLSSTLTLSKADYEKHKVYACEVTHQGLSSPVTKSFNRGEC
notes: Humanized IgG1 kappa
B3: hB5-2-1 (antibody, human IgG1, kappa, V domains shown)
VH: EVQLVESGGGLVQPGGSLRLSCAASGFTFRNYAMSWVRQAPGKGLEWVAEISTGGSYTYYPDTVTGRFTISRDNAKNSLYLQMNSLRAEDTAVYYCAFYYYGSSYSMDYWGQGTLVTVSS
VL: DIQMTQSPSSLSASVGDRVTISCRASQDISNYLNWYQQKPGKAPKLLIYHTSILHSGVPSRFSGSGSGTDYSLTISSLQPEDIATYFCQQGDTVPLTFGGGTKVEIKR
notes: Humanized IgG1 kappa
B4: hB5-2-2 (antibody, human IgG1, kappa, V domains shown)
VH: B3 VH
VL: B3 VL with A43V, I83V
notes: Humanized IgG1 kappa
B5: hB5-2-3 (antibody, human IgG1, kappa, V domains shown)
VH: B3 VH
VL: B3 VL with S7T, P8T, Y36F, L46S, R61K, I83F
notes: Humanized IgG1 kappa
B6: hB5-2-4 (antibody, human IgG1, kappa, V domains shown)
VH: B3 VH
VL: B3 VL with I83F
notes: Humanized IgG1 kappa
B7: hB5-2-5 (antibody, human IgG1, kappa, V domains shown)
VH: B3 VH with A75S, S78T
VL: B3 VL
notes: Humanized IgG1 kappa
B8: hB5-2-6 (antibody, human IgG1, kappa, V domains shown)
VH: B3 VH with A75S, S78T
VL: B3 VL with A43V, I83V
notes: Humanized IgG1 kappa
B9: hB5-2-7 (antibody, human IgG1, kappa, V domains shown)
VH: B3 VH with A75S, S78T
VL: B3 VL with S7T, P8T, Y36F, L46S, R61K, I83F
notes: Humanized IgG1 kappa
B10: hB5-2-8 (antibody, human IgG1, kappa, V domains shown)
VH: B3 VH with A75S, S78T
VL: B3 VL with I83F
notes: Humanized IgG1 kappa
B11: hB5-2-9 (antibody, human IgG1, kappa)
heavy: not shown
light: B2 light with F83I
notes: Humanized IgG1 kappa
B12: hB5-2-10 (antibody, human IgG1, kappa)
heavy: not shown
light: B2 light with A43V, F83V
notes: Humanized IgG1 kappa; also called humanized antibody hB5-2-10
B13: hB5-2-11 (antibody, human IgG1, kappa)
heavy: not shown
light: B2 light with S7T, P8T, Y36F, L46S, R61K
notes: Humanized IgG1 kappa
B14: hB5-2-13 (antibody, human IgG1, kappa, V domains shown)
VH: B3 VH with L11V, G16R, A75S, S78T, N84S
VL: B3 VL
notes: Humanized IgG1 kappa
B15: hB5-2-14 (antibody, human IgG1, kappa, V domains shown)
VH: B3 VH with L11V, G16R, A75S, S78T, N84S
VL: B3 VL with A43V, I83V
notes: Humanized IgG1 kappa
B16: hB5-2-15 (antibody, human IgG1, kappa, V domains shown)
VH: B3 VH with L11V, G16R, A75S, S78T, N84S
VL: B3 VL with S7T, P8T, Y36F, L46S, R61K, I83F
notes: Humanized IgG1 kappa
B17: hB5-2-16 (antibody, human IgG1, kappa, V domains shown)
VH: B3 VH with L11V, G16R, A75S, S78T, N84S
VL: B3 VL with I83F
notes: Humanized IgG1 kappa
B18: hB5-2-17 (antibody, human IgG1, kappa)
heavy: not shown
light: B2 light with F83I
notes: Humanized IgG1 kappa
B19: hB5-2-18 (antibody, human IgG1, kappa)
heavy: not shown
light: B2 light with A43V, F83V
notes: Humanized IgG1 kappa
B20: hB5-2-19 (antibody, human IgG1, kappa)
heavy: not shown
light: B2 light with S7T, P8T, Y36F, L46S, R61K
notes: Humanized IgG1 kappa
B21: hB5-2-20 (antibody, human IgG1, kappa)
heavy: not shown
light: B2 light
notes: Humanized IgG1 kappa

Experiments:
5T4 EDC-Fc = molecular target: T1, 5T4 EDC-Fc; assay: SPR (Biacore), 5T4 EDC-Fc amine-coupled to CM5, antibody as analyte, 1:2 model
TPBG-His [1] = molecular target: T2, TPBG-His; assay: SPR (Biacore 8K), antibody captured on anti-human antibody CM5 chip, TPBG-His 300 nM, 1:1 model
[2] = molecular target: T3, mouse 5T4 antigen (TPBG-His, mouse); assay: ELISA, TPBG-His coated at 1 ug/ml
TPBG-His [3] = molecular target: T2, TPBG-His; assay: SPR (Biacore), TPBG-His amine-coupled to CM5, antibody as analyte, 1:1 model
TPBG-His [4] = molecular target: T2, TPBG-His; assay: ELISA, TPBG-His coated at 1 ug/ml, anti-human IgG Fc HRP detection

Row | Binder | Kd (TPBG-His [1]) | koff (TPBG-His [1]) | kon (TPBG-His [1]) | further results
1 | B1 | – | – | – | Kd (5T4 EDC-Fc): 0.018 nM; koff (5T4 EDC-Fc): 1.45e-05 s⁻¹; kon (5T4 EDC-Fc): 803000 M⁻¹ s⁻¹
2 | B2 | 0.785 nM | 0.000298 s⁻¹ | 380000 M⁻¹ s⁻¹ | –
3 | B3 | 1.11 nM | 0.000388 s⁻¹ | 351000 M⁻¹ s⁻¹ | –
4 | B4 | 2.36 nM | 0.000527 s⁻¹ | 223000 M⁻¹ s⁻¹ | –
5 | B5 | 1.87 nM | 0.000681 s⁻¹ | 364000 M⁻¹ s⁻¹ | –
6 | B6 | 0.845 nM | 0.000298 s⁻¹ | 353000 M⁻¹ s⁻¹ | –
7 | B7 | 0.827 nM | 0.000279 s⁻¹ | 337000 M⁻¹ s⁻¹ | –
8 | B8 | 1.53 nM | 0.000497 s⁻¹ | 326000 M⁻¹ s⁻¹ | –
9 | B9 | 0.869 nM | 0.000342 s⁻¹ | 393000 M⁻¹ s⁻¹ | –
10 | B10 | 0.95 nM | 0.000302 s⁻¹ | 318000 M⁻¹ s⁻¹ | –
11 | B11 | 0.927 nM | 0.000278 s⁻¹ | 299000 M⁻¹ s⁻¹ | –
12 | B12 | 2.31 nM | 0.000487 s⁻¹ | 211000 M⁻¹ s⁻¹ | binding result [2]: no binding (tested: highest concentration tested 20000 ng/ml); Kd (TPBG-His [3]): 2.92 nM; koff (TPBG-His [3]): 0.000627 s⁻¹; kon (TPBG-His [3]): 215000 M⁻¹ s⁻¹; EC50 (TPBG-His [4]): 2.8 ng/mL
13 | B13 | 1.39 nM | 0.000431 s⁻¹ | 310000 M⁻¹ s⁻¹ | –
14 | B14 | 0.721 nM | 0.000313 s⁻¹ | 434000 M⁻¹ s⁻¹ | –
15 | B15 | 1.74 nM | 0.000774 s⁻¹ | 445000 M⁻¹ s⁻¹ | –
16 | B16 | 1.95 nM | 0.000632 s⁻¹ | 324000 M⁻¹ s⁻¹ | –
17 | B17 | 0.634 nM | 0.000347 s⁻¹ | 547000 M⁻¹ s⁻¹ | –
18 | B18 | 0.902 nM | 0.000317 s⁻¹ | 351000 M⁻¹ s⁻¹ | –
19 | B19 | 2.07 nM | 0.00061 s⁻¹ | 294000 M⁻¹ s⁻¹ | –
20 | B20 | 0.88 nM | 0.000348 s⁻¹ | 396000 M⁻¹ s⁻¹ | –
21 | B21 | 0.95 nM | 0.000302 s⁻¹ | 318000 M⁻¹ s⁻¹ | –
